B1: PDZK1 (parent)
chain: RETASLKLLPHQPRIVEMKKGSNG

Variants of: B1
Assay: protein stability index of a GFP-peptide fusion (GPS, HEK-293T) (PSI 1-6); higher = more stable
Details: c terminus: a fixed tail appended
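Further: lentivirally expressed fusions sorted by FACS into six bins by GFP to DsRed ratio, PSI derived from sequencing read proportions per bin multiplied by bin number.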

| Variant | protein stability index |
| --- | --- |
| RETASLCLLPHQPRIVEMKKGSNG | 3.89 |
| RETASLALLPHQPRIVEMKKGSNG | 4.19 |
| RETASLVLLPHQPRIVEMKKGSNG | 3.95 |
| RETASLILLPHQPRIVEMKKGSNG | 3.68 |
| RETASLQLLPHQPRIVEMKKGSNG | 4.74 |
| RETASLDLLPHQPRIVEMKKGSNG | 4.97 |
| RETASLTLLPHQPRIVEMKKGSNG | 4.66 |
| RETASLWLLPHQPRIVEMKKGSNG | 2.72 |
| RETASLGLLPHQPRIVEMKKGSNG | 4.32 |
| RETASLYLLPHQPRIVEMKKGSNG | 3.4 |
| RETASLFLLPHQPRIVEMKKGSNG | 3.07 |
| RETASLPLLPHQPRIVEMKKGSNG | 4.67 |
| RETASLNLLPHQPRIVEMKKGSNG | 4.86 |
| RETASLSLLPHQPRIVEMKKGSNG | 4.29 |
| RETASLLLLPHQPRIVEMKKGSNG | 3.98 |
| RETASLRLLPHQPRIVEMKKGSNG | 4.05 |
| RETASLMLLPHQPRIVEMKKGSNG | 3.9 |
| RETASLKLLPHQERIVEMKKGSNG | 4.4 |
| RETASLKLLPHQWRIVEMKKGSNG | 3.25 |
| RETASLKLLPHQQRIVEMKKGSNG | 4.81 |
| RETASLKLLPHQDRIVEMKKGSNG | 4.22 |
| RETASLKLLPHQIRIVEMKKGSNG | 3.29 |
| RETASLKLLPHQHRIVEMKKGSNG | 3.73 |
| RETASLKLLPHQARIVEMKKGSNG | 4.09 |

| Variant | protein stability index |
| --- | --- |
| RETASLKLLPHQVRIVEMKKGSNG | 4.14 |
| RETASLKLLPHQGRIVEMKKGSNG | 4.14 |
| RETASLKLLPHQYRIVEMKKGSNG | 3.4 |
| RETASLKLLPHQLRIVEMKKGSNG | 4.35 |
| RETASLKLLPHQFRIVEMKKGSNG | 3.63 |
| RETASLKLLPHQMRIVEMKKGSNG | 3.88 |
| RETASLKLLPHQCRIVEMKKGSNG | 2.35 |
| RETASLKLLPHQKRIVEMKKGSNG | 4.07 |
| RETASLKLLPHQSRIVEMKKGSNG | 3.92 |
| RETASLKLLPHQTRIVEMKKGSNG | 3.99 |
| RETASLKLLPHQNRIVEMKKGSNG | 3.67 |
| RETASLKLLPHQRRIVEMKKGSNG | 3.77 |
| RETASLKLLPHQPRIPEMKKGSNG | 4.63 |
| RETASLKLLPHQPRIDEMKKGSNG | 4.18 |
| RETASLKLLPHQPRIAEMKKGSNG | 4.42 |
| RETASLKLLPHQPRIQEMKKGSNG | 4.51 |
| RETASLKLLPHQPRIMEMKKGSNG | 4.17 |
| RETASLKLLPHQPRINEMKKGSNG | 4.88 |
| RETASLKLLPHQPRITEMKKGSNG | 4.67 |
| RETASLKLLPHQPRIEEMKKGSNG | 4.53 |
| RETASLKLLPHQPRIHEMKKGSNG | 4.35 |
| RETASLKLLPHQPRIGEMKKGSNG | 4.85 |
| RETASLKLLPHQPRIIEMKKGSNG | 3.9 |
| RETASLKLLPHQPRILEMKKGSNG | 3.87 |

| Variant | protein stability index |
| --- | --- |
| RETASLKLLPHQPRIFEMKKGSNG | 4.05 |
| RETASLKLLPHQPRISEMKKGSNG | 3.92 |
| RETASLKLLPHQPRIWEMKKGSNG | 3.57 |
| RETASLKLLPHRPRIVEMKKGSNG | 3.65 |
| RETASLKLLPHPPRIVEMKKGSNG | 4.03 |
| RETASLKLLPHTPRIVEMKKGSNG | 3.26 |
| RETASLKLLPHKPRIVEMKKGSNG | 3.66 |
| RETASLKLLPHLPRIVEMKKGSNG | 3.27 |
| RETASLKLLPHSPRIVEMKKGSNG | 4.05 |
| RETASLKLLPHCPRIVEMKKGSNG | 3.27 |
| RETASLKLLPHNPRIVEMKKGSNG | 3.84 |
| RETASLKLLPHVPRIVEMKKGSNG | 3.09 |
| RETASLKLLPHAPRIVEMKKGSNG | 3.54 |
| RETASLKLLPHIPRIVEMKKGSNG | 2.85 |
| RETASLKLLPHWPRIVEMKKGSNG | 3.2 |
| RETASLKLLPHGPRIVEMKKGSNG | 3.62 |
| RETASLKLLPHFPRIVEMKKGSNG | 2.97 |
| RETASLKLLPHDPRIVEMKKGSNG | 3.3 |
| RETASLKLLPHEPRIVEMKKGSNG | 2.88 |
| RETASLKLLPHMPRIVEMKKGSNG | 3.38 |
| RETASLKLLPHHPRIVEMKKGSNG | 3.97 |
| RETASLKLLPHQPAIVEMKKGSNG | 4.25 |
| RETASLKLLPHQPWIVEMKKGSNG | 3.3 |
| RETASLKLLPHQPTIVEMKKGSNG | 4.22 |

| Variant | protein stability index |
| --- | --- |
| RETASLKLLPHQPNIVEMKKGSNG | 4.13 |
| RETASLKLLPHQPYIVEMKKGSNG | 3.34 |
| RETASLKLLPHQPGIVEMKKGSNG | 4.05 |
| RETASLKLLPHQPSIVEMKKGSNG | 3.87 |
| RETASLKLLPHQPDIVEMKKGSNG | 4.61 |
| RETASLKLLPHQPCIVEMKKGSNG | 3.63 |
| RETASLKLLPHQPHIVEMKKGSNG | 3.7 |
| RETASLKLLPHQPKIVEMKKGSNG | 3.38 |
| RETASLKLLPHQPEIVEMKKGSNG | 4.07 |
| RETASLKLLPHQPMIVEMKKGSNG | 2.93 |
| RETASLKLLPHQPIIVEMKKGSNG | 3.86 |
| RETASLKCLPHQPRIVEMKKGSNG | 3.38 |
| RETASLKYLPHQPRIVEMKKGSNG | 3.17 |
| RETASLKRLPHQPRIVEMKKGSNG | 3.89 |
| RETASLKWLPHQPRIVEMKKGSNG | 3.21 |
| RETASLKKLPHQPRIVEMKKGSNG | 3.63 |
| RETASLKNLPHQPRIVEMKKGSNG | 2.96 |
| RETASLKQLPHQPRIVEMKKGSNG | 4.16 |
| RETASLKDLPHQPRIVEMKKGSNG | 3.4 |
| RETASLKELPHQPRIVEMKKGSNG | 3.77 |
| RETASLKVLPHQPRIVEMKKGSNG | 3.92 |
| RETASLKGLPHQPRIVEMKKGSNG | 3.42 |
| RETASLKALPHQPRIVEMKKGSNG | 3.56 |
| RETASLKILPHQPRIVEMKKGSNG | 3.34 |

| Variant | protein stability index |
| --- | --- |
| RETASLKHLPHQPRIVEMKKGSNG | 2.81 |
| RETASLKFLPHQPRIVEMKKGSNG | 3.65 |
| RETASLKMLPHQPRIVEMKKGSNG | 2.75 |
| RETASLKPLPHQPRIVEMKKGSNG | 4.25 |
| RETASLKSLPHQPRIVEMKKGSNG | 3.7 |
| RETASLKLLPHQPRYVEMKKGSNG | 4.01 |
| RETASLKLLPHQPRCVEMKKGSNG | 4.3 |
| RETASLKLLPHQPRKVEMKKGSNG | 4.75 |
| RETASLKLLPHQPRWVEMKKGSNG | 2.79 |
| RETASLKLLPHQPRSVEMKKGSNG | 4.69 |
| RETASLKLLPHQPRPVEMKKGSNG | 4.39 |
| RETASLKLLPHQPRTVEMKKGSNG | 4.49 |
| RETASLKLLPHQPRVVEMKKGSNG | 3.51 |
| RETASLKLLPHQPRNVEMKKGSNG | 4.99 |
| RETASLKLLPHQPRQVEMKKGSNG | 4.72 |
| RETASLKLLPHQPRMVEMKKGSNG | 3.89 |
| RETASLKLLPHQPRFVEMKKGSNG | 3.44 |
| RETASLKLLPHQPREVEMKKGSNG | 5.02 |
| RETASLKLLPHQPRAVEMKKGSNG | 4.78 |
| RETASLKLLPHQPRGVEMKKGSNG | 5.16 |
| RETASLKLLPHQPRRVEMKKGSNG | 4.51 |
| RETASLKLLPHQPRDVEMKKGSNG | 4.66 |
| RETASLKLLPHQPRLVEMKKGSNG | 4.16 |
| RETASLKLLKHQPRIVEMKKGSNG | 3.62 |

| Variant | protein stability index |
| --- | --- |
| RETASLKLLYHQPRIVEMKKGSNG | 2.99 |
| RETASLKLLHHQPRIVEMKKGSNG | 2.54 |
| RETASLKLLIHQPRIVEMKKGSNG | 2.43 |
| RETASLKLLVHQPRIVEMKKGSNG | 2.76 |
| RETASLKLLFHQPRIVEMKKGSNG | 2.08 |
| RETASLKLLWHQPRIVEMKKGSNG | 2.82 |
| RETASLKLLDHQPRIVEMKKGSNG | 3.21 |
| RETASLKLLAHQPRIVEMKKGSNG | 3.5 |
| RETASLKLLQHQPRIVEMKKGSNG | 3.02 |
| RETASLKLLMHQPRIVEMKKGSNG | 2.89 |
| RETASLKLLGHQPRIVEMKKGSNG | 3.38 |
| RETASLKLLEHQPRIVEMKKGSNG | 3.14 |
| RETASLKLLSHQPRIVEMKKGSNG | 3.48 |
| RETASLKLLTHQPRIVEMKKGSNG | 2.98 |
| RETASLKLLLHQPRIVEMKKGSNG | 2.88 |
| RETASLKLLRHQPRIVEMKKGSNG | 3.56 |
| RETASLKLLPMQPRIVEMKKGSNG | 2.75 |
| RETASLKLLPCQPRIVEMKKGSNG | 3.47 |
| RETASLKLLPWQPRIVEMKKGSNG | 3.29 |
| RETASLKLLPAQPRIVEMKKGSNG | 2.57 |
| RETASLKLLPKQPRIVEMKKGSNG | 3.53 |
| RETASLKLLPFQPRIVEMKKGSNG | 3.27 |
| RETASLKLLPVQPRIVEMKKGSNG | 2.59 |
| RETASLKLLPQQPRIVEMKKGSNG | 3.23 |

| Variant | protein stability index |
| --- | --- |
| RETASLKLLPYQPRIVEMKKGSNG | 3.5 |
| RETASLKLLPIQPRIVEMKKGSNG | 3.59 |
| RETASLKLLPPQPRIVEMKKGSNG | 3.25 |
| RETASLKLLPTQPRIVEMKKGSNG | 3.73 |
| RETASLKLLPDQPRIVEMKKGSNG | 2.35 |
| RETASLKLLPLQPRIVEMKKGSNG | 3.14 |
| RETASLKLLPNQPRIVEMKKGSNG | 3.38 |
| RETASLKLLPEQPRIVEMKKGSNG | 3.08 |
| RETASLKLLPSQPRIVEMKKGSNG | 3.52 |
| RETASLKLLPGQPRIVEMKKGSNG | 3.38 |
| RETASLKLLPRQPRIVEMKKGSNG | 3.35 |
| RETASWKLLPHQPRIVEMKKGSNG | 2.98 |
| RETASTKLLPHQPRIVEMKKGSNG | 3.63 |
| RETASIKLLPHQPRIVEMKKGSNG | 3.48 |
| RETASKKLLPHQPRIVEMKKGSNG | 3.64 |
| RETASHKLLPHQPRIVEMKKGSNG | 3.56 |
| RETASFKLLPHQPRIVEMKKGSNG | 3.15 |
| RETASQKLLPHQPRIVEMKKGSNG | 3.9 |
| RETASRKLLPHQPRIVEMKKGSNG | 3.37 |
| RETASGKLLPHQPRIVEMKKGSNG | 3.69 |
| RETASYKLLPHQPRIVEMKKGSNG | 3.56 |
| RETASPKLLPHQPRIVEMKKGSNG | 4.18 |
| RETASNKLLPHQPRIVEMKKGSNG | 4 |
| RETASVKLLPHQPRIVEMKKGSNG | 3.54 |

| Variant | protein stability index |
| --- | --- |
| RETASSKLLPHQPRIVEMKKGSNG | 4.01 |
| RETASMKLLPHQPRIVEMKKGSNG | 3.55 |
| RETASLKLPPHQPRIVEMKKGSNG | 3 |
| RETASLKLRPHQPRIVEMKKGSNG | 3.63 |
| RETASLKLCPHQPRIVEMKKGSNG | 3.75 |
| RETASLKLTPHQPRIVEMKKGSNG | 3.61 |
| RETASLKLQPHQPRIVEMKKGSNG | 3.5 |
| RETASLKLMPHQPRIVEMKKGSNG | 3.02 |
| RETASLKLDPHQPRIVEMKKGSNG | 3.33 |
| RETASLKLAPHQPRIVEMKKGSNG | 3.39 |
| RETASLKLNPHQPRIVEMKKGSNG | 3.79 |
| RETASLKLSPHQPRIVEMKKGSNG | 3.26 |
| RETASLKLWPHQPRIVEMKKGSNG | 2.76 |
| RETASLKLFPHQPRIVEMKKGSNG | 3.26 |
| RETASLKLGPHQPRIVEMKKGSNG | 4.12 |
| RETASLKLEPHQPRIVEMKKGSNG | 3.11 |
| RETASLKLYPHQPRIVEMKKGSNG | 3 |
| RETASLKLVPHQPRIVEMKKGSNG | 3.36 |
| RETASLKLKPHQPRIVEMKKGSNG | 3.99 |
| RETASLKLHPHQPRIVEMKKGSNG | 3.42 |

Reference: the supplement of paper PMC10567573
